Assay results reported in the RNAGym collection of RNA variant scans (doi:10.7554/elife.80360).

B1: Hammerhead Ribozyme (parent)
chain: ACCGGAUGUGCUUUCCGGUCUGAUGAGUCCGUGAGGACGAAACAG

Variants of: B1
Experiment: self-cleavage, relative activity (ratio to wild type); higher = more cleavage; co-transcriptional

**Q.** With ACCGGAUGUGCUUUCCGGUCUGAUGAGUCCGAGAGAACGAAACAG [U32A G36A] as the variant, how does the self-cleavage read?
**A.** 0.721

**Q.** Which self-cleavage does the source give for ACCGGAUGUGCUUUCCGGUCUGAUGAGUCCGAGAGCACGAAACAG [U32A G36C] here?
**A.** 0.37

**Q.** Which self-cleavage does the source give for ACCGGAUGUGCUUUCCGGUCUGAUGAGUCCGAGAGUACGAAACAG [U32A G36U] here?
**A.** 0.668

**Q.** For ACCGGAUGUGCUUUCCGGUCUGAUGAGUCCGAGAGGACAAAACAG [U32A G39A], which self-cleavage is on record?
**A.** 0.367

**Q.** With ACCGGAUGUGCUUUCCGGUCUGAUGAGUCCGAGAGGACCAAACAG [U32A G39C] as the variant, how does the self-cleavage read?
**A.** 0.485

**Q.** Which self-cleavage does the source give for ACCGGAUGUGCUUUCCGGUCUGAUGAGUCCGAGAGGACUAAACAG [U32A G39U] here?
**A.** 0.366

**Q.** Which self-cleavage does the source give for ACCGGAUGUGCUUUCCGGUCUGAUGAGUCCGAGAGGACGAAACAA [U32A G45A] here?
**A.** 0.852

**Q.** Which self-cleavage does the source give for ACCGGAUGUGCUUUCCGGUCUGAUGAGUCCGAGAGGACGAAACAC [U32A G45C] here?
**A.** 0.593

**Q.** For ACCGGAUGUGCUUUCCGGUCUGAUGAGUCCGAGAGGACGAAACAU [U32A G45U], which self-cleavage is on record?
**A.** 0.707

**Q.** With ACCGGAUGUGCUUUCCGGUCUGAUGAGUCCGCGAGGACGAAACAG [U32C] as the variant, how does the self-cleavage read?
**A.** 1

**Q.** For ACCGGAUGUGCUUUCCGGUCUGAUGAGUCCGCGCGGACGAAACAG [U32C A34C], which self-cleavage is on record?
**A.** 0.95

**Q.** For ACCGGAUGUGCUUUCCGGUCUGAUGAGUCCGCGGGGACGAAACAG [U32C A34G], which self-cleavage is on record?
**A.** 0.896

**Q.** Which self-cleavage does the source give for ACCGGAUGUGCUUUCCGGUCUGAUGAGUCCGCGUGGACGAAACAG [U32C A34U] here?
**A.** 0.738

**Q.** Which self-cleavage does the source give for ACCGGAUGUGCUUUCCGGUCUGAUGAGUCCGCGAGGCCGAAACAG [U32C A37C] here?
**A.** 0.803

**Q.** Which self-cleavage does the source give for ACCGGAUGUGCUUUCCGGUCUGAUGAGUCCGCGAGGGCGAAACAG [U32C A37G] here?
**A.** 0.987

**Q.** With ACCGGAUGUGCUUUCCGGUCUGAUGAGUCCGCGAGGUCGAAACAG [U32C A37U] as the variant, how does the self-cleavage read?
**A.** 0.752

**Q.** For ACCGGAUGUGCUUUCCGGUCUGAUGAGUCCGCGAGGACGCAACAG [U32C A40C], which self-cleavage is on record?
**A.** 0.626

**Q.** With ACCGGAUGUGCUUUCCGGUCUGAUGAGUCCGCGAGGACGGAACAG [U32C A40G] as the variant, how does the self-cleavage read?
**A.** 0.406

**Q.** Which self-cleavage does the source give for ACCGGAUGUGCUUUCCGGUCUGAUGAGUCCGCGAGGACGUAACAG [U32C A40U] here?
**A.** 0.306

**Q.** With ACCGGAUGUGCUUUCCGGUCUGAUGAGUCCGCGAGGACGACACAG [U32C A41C] as the variant, how does the self-cleavage read?
**A.** 0.294

**Q.** With ACCGGAUGUGCUUUCCGGUCUGAUGAGUCCGCGAGGACGAGACAG [U32C A41G] as the variant, how does the self-cleavage read?
**A.** 0.311

**Q.** Which self-cleavage does the source give for ACCGGAUGUGCUUUCCGGUCUGAUGAGUCCGCGAGGACGAUACAG [U32C A41U] here?
**A.** 0.474

**Q.** Which self-cleavage does the source give for ACCGGAUGUGCUUUCCGGUCUGAUGAGUCCGCGAGGACGAACCAG [U32C A42C] here?
**A.** 0.316

**Q.** For ACCGGAUGUGCUUUCCGGUCUGAUGAGUCCGCGAGGACGAAGCAG [U32C A42G], which self-cleavage is on record?
**A.** 0.364

**Q.** With ACCGGAUGUGCUUUCCGGUCUGAUGAGUCCGCGAGGACGAAUCAG [U32C A42U] as the variant, how does the self-cleavage read?
**A.** 0.366

**Q.** With ACCGGAUGUGCUUUCCGGUCUGAUGAGUCCGCGAGGACGAAACCG [U32C A44C] as the variant, how does the self-cleavage read?
**A.** 0.678

**Q.** For ACCGGAUGUGCUUUCCGGUCUGAUGAGUCCGCGAGGACGAAACGG [U32C A44G], which self-cleavage is on record?
**A.** 1.32

**Q.** Which self-cleavage does the source give for ACCGGAUGUGCUUUCCGGUCUGAUGAGUCCGCGAGGACGAAACUG [U32C A44U] here?
**A.** 0.359

**Q.** For ACCGGAUGUGCUUUCCGGUCUGAUGAGUCCGCGAGGAAGAAACAG [U32C C38A], which self-cleavage is on record?
**A.** 0.691

**Q.** Which self-cleavage does the source give for ACCGGAUGUGCUUUCCGGUCUGAUGAGUCCGCGAGGAGGAAACAG [U32C C38G] here?
**A.** 0.691

**Q.** With ACCGGAUGUGCUUUCCGGUCUGAUGAGUCCGCGAGGAUGAAACAG [U32C C38U] as the variant, how does the self-cleavage read?
**A.** 0.726

**Q.** Which self-cleavage does the source give for ACCGGAUGUGCUUUCCGGUCUGAUGAGUCCGCGAGGACGAAAAAG [U32C C43A] here?
**A.** 0.315

**Q.** For ACCGGAUGUGCUUUCCGGUCUGAUGAGUCCGCGAGGACGAAAGAG [U32C C43G], which self-cleavage is on record?
**A.** 0.388

**Q.** For ACCGGAUGUGCUUUCCGGUCUGAUGAGUCCGCGAGGACGAAAUAG [U32C C43U], which self-cleavage is on record?
**A.** 0.661

**Q.** Which self-cleavage does the source give for ACCGGAUGUGCUUUCCGGUCUGAUGAGUCCGCAAGGACGAAACAG [U32C G33A] here?
**A.** 0.924

**Q.** For ACCGGAUGUGCUUUCCGGUCUGAUGAGUCCGCCAGGACGAAACAG [U32C G33C], which self-cleavage is on record?
**A.** 1.15

**Q.** Which self-cleavage does the source give for ACCGGAUGUGCUUUCCGGUCUGAUGAGUCCGCUAGGACGAAACAG [U32C G33U] here?
**A.** 1.37

**Q.** With ACCGGAUGUGCUUUCCGGUCUGAUGAGUCCGCGAAGACGAAACAG [U32C G35A] as the variant, how does the self-cleavage read?
**A.** 0.83

**Q.** Which self-cleavage does the source give for ACCGGAUGUGCUUUCCGGUCUGAUGAGUCCGCGACGACGAAACAG [U32C G35C] here?
**A.** 0.647

**Q.** For ACCGGAUGUGCUUUCCGGUCUGAUGAGUCCGCGAUGACGAAACAG [U32C G35U], which self-cleavage is on record?
**A.** 0.795

**Q.** Which self-cleavage does the source give for ACCGGAUGUGCUUUCCGGUCUGAUGAGUCCGCGAGAACGAAACAG [U32C G36A] here?
**A.** 0.718

**Q.** With ACCGGAUGUGCUUUCCGGUCUGAUGAGUCCGCGAGCACGAAACAG [U32C G36C] as the variant, how does the self-cleavage read?
**A.** 0.553

**Q.** For ACCGGAUGUGCUUUCCGGUCUGAUGAGUCCGCGAGUACGAAACAG [U32C G36U], which self-cleavage is on record?
**A.** 0.73

**Q.** Which self-cleavage does the source give for ACCGGAUGUGCUUUCCGGUCUGAUGAGUCCGCGAGGACAAAACAG [U32C G39A] here?
**A.** 0.317

**Q.** For ACCGGAUGUGCUUUCCGGUCUGAUGAGUCCGCGAGGACCAAACAG [U32C G39C], which self-cleavage is on record?
**A.** 0.375

**Q.** Which self-cleavage does the source give for ACCGGAUGUGCUUUCCGGUCUGAUGAGUCCGCGAGGACUAAACAG [U32C G39U] here?
**A.** 0.369

**Q.** Which self-cleavage does the source give for ACCGGAUGUGCUUUCCGGUCUGAUGAGUCCGCGAGGACGAAACAA [U32C G45A] here?
**A.** 0.776

**Q.** Which self-cleavage does the source give for ACCGGAUGUGCUUUCCGGUCUGAUGAGUCCGCGAGGACGAAACAC [U32C G45C] here?
**A.** 0.425

**Q.** Which self-cleavage does the source give for ACCGGAUGUGCUUUCCGGUCUGAUGAGUCCGCGAGGACGAAACAU [U32C G45U] here?
**A.** 0.635

**Q.** For ACCGGAUGUGCUUUCCGGUCUGAUGAGUCCGGGAGGACGAAACAG [U32G], which self-cleavage is on record?
**A.** 0.769

**Q.** Which self-cleavage does the source give for ACCGGAUGUGCUUUCCGGUCUGAUGAGUCCGGGCGGACGAAACAG [U32G A34C] here?
**A.** 0.805

**Q.** With ACCGGAUGUGCUUUCCGGUCUGAUGAGUCCGGGGGGACGAAACAG [U32G A34G] as the variant, how does the self-cleavage read?
**A.** 0.65

**Q.** For ACCGGAUGUGCUUUCCGGUCUGAUGAGUCCGGGUGGACGAAACAG [U32G A34U], which self-cleavage is on record?
**A.** 1.19

**Q.** Which self-cleavage does the source give for ACCGGAUGUGCUUUCCGGUCUGAUGAGUCCGGGAGGCCGAAACAG [U32G A37C] here?
**A.** 0.431

**Q.** With ACCGGAUGUGCUUUCCGGUCUGAUGAGUCCGGGAGGGCGAAACAG [U32G A37G] as the variant, how does the self-cleavage read?
**A.** 0.448

**Q.** With ACCGGAUGUGCUUUCCGGUCUGAUGAGUCCGGGAGGUCGAAACAG [U32G A37U] as the variant, how does the self-cleavage read?
**A.** 0.46

**Q.** Which self-cleavage does the source give for ACCGGAUGUGCUUUCCGGUCUGAUGAGUCCGGGAGGACGCAACAG [U32G A40C] here?
**A.** 0.372
